The target in assay [1] is GST-DLG1 PDZ domain fusion protein (human homolog of Drosophila discs large protein AA275-477; PDZ domains 1-2 of 3) (human) [GST: P08515]. In words: G assay, peptide titrated on immobilized GST-PDZ, saturation fit (apparent affinity).
The target in assay [2] is GST-PSD95 PDZ domain fusion protein (human post-synaptic density protein 95 AA387-724; PDZ domains 1-3 of 3) (human) [GST: P08515]. The assay is described as above.
In assay [3] the target is GST-NeDLG PDZ domain fusion protein (presynaptic protein sao102, neuroendocrine-dlg; PDZ domains 1-2 of 3) [GST: P08515]. Described as above.
Assay [4] has as its target GST polypeptide alone (not a fusion protein) [GST: P08515]. In words: G assay, immobilized GST alone (background control).

The values that follow come from patent US20090149339A1.

Ends that are not written are not given here. * marks the point of attachment. Biotin = O=C1N[C@H]2[C@H](CS[C@H]2CCCCC(=O)*)N1

Sequence of GST-DLG1 PDZ domain fusion protein (human homolog of Drosophila discs large protein AA275-477; PDZ domains 1-2 of 3) (human) [GST: P08515] (P08515 1-218, tags or fused parts left off): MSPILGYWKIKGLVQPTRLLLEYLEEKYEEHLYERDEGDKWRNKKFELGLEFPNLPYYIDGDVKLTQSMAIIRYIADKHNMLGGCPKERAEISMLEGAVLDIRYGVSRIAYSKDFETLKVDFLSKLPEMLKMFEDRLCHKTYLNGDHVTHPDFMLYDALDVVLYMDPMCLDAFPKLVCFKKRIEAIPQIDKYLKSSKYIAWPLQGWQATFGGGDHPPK
Sequence of GST polypeptide alone (not a fusion protein) [GST: P08515] (P08515 whole entry, the tested form may be a part): as the sequence (P08515 1-218, tags or fused parts left off) above
Sequence of GST-NeDLG PDZ domain fusion protein (presynaptic protein sao102, neuroendocrine-dlg; PDZ domains 1-2 of 3) [GST: P08515] (P08515 1-218, tags or fused parts left off): as above
Sequence of GST-PSD95 PDZ domain fusion protein (human post-synaptic density protein 95 AA387-724; PDZ domains 1-3 of 3) (human) [GST: P08515] (P08515 1-218, tags or fused parts left off): as above

B1: CD95 (Apo-1/Fas) C-terminal PL peptide AA13L, biotinylated (peptide)
peptide: Biotin-KDITSDSENSNFRNEIQSLV
For B1, the Kd in assay [1] is 54 µM.

B2: CLASP-2 C-terminal PL peptide AA2L (C-terminal 20 amino acids), biotinylated (peptide)
peptide: ISGTPTSTMVHGMTSSSSVV
modifications: not fully specified
B2: the Kd in assay [2] amounted to 45 µM; in assay [3], 7.5 µM. In assay [4], this molecule gave an OD (binding to GST alone) of less than 0.2 OD units.
